Assay results from paper PMC2696799 (European journal of immunology, 2009).
One block for each molecule: values may come before it.

Assays:
CD47 ECD (Homo sapiens) = CD47 ECD (Homo sapiens) (UniProt Q08722); conditions: cited from earlier work
[1] = molecular target: CD200R ECD (Mus musculus) (UniProt Q9ES57); conditions: cited from earlier work
[2] = molecular target: CD200RLa ECD (Mus musculus) (UniProt Q6XJV4); conditions: cited from earlier work
[3] = molecular target: CD200R ECD (Homo sapiens) (UniProt Q8TD46); conditions: cited from earlier work
CD200R ECD (Homo sapiens), sequence (Q8TD46 25-265): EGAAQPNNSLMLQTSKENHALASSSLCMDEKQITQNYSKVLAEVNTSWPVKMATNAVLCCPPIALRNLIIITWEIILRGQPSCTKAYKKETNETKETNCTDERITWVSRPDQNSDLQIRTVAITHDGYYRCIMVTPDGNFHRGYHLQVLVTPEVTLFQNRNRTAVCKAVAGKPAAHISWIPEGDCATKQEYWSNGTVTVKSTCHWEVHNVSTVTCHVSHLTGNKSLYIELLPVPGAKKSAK

CD58 ECD (Homo sapiens) = CD58 ECD (Homo sapiens) (UniProt P19256); conditions: cited from earlier work
CD58 ECD (Homo sapiens), sequence (P19256 29-215): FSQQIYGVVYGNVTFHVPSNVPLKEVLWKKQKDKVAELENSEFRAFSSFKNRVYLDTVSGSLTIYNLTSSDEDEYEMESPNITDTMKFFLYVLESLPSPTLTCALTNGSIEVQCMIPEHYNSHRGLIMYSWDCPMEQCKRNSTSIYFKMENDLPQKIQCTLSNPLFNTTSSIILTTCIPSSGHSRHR

[4] = molecular target: T1, Acid-soluble human collagen type I (from human placenta) (human, UniProt P02452 162-1218; P08123 80-1119); test: SPR
T1 sequence (P02452 162-1218, chain 1 of 2): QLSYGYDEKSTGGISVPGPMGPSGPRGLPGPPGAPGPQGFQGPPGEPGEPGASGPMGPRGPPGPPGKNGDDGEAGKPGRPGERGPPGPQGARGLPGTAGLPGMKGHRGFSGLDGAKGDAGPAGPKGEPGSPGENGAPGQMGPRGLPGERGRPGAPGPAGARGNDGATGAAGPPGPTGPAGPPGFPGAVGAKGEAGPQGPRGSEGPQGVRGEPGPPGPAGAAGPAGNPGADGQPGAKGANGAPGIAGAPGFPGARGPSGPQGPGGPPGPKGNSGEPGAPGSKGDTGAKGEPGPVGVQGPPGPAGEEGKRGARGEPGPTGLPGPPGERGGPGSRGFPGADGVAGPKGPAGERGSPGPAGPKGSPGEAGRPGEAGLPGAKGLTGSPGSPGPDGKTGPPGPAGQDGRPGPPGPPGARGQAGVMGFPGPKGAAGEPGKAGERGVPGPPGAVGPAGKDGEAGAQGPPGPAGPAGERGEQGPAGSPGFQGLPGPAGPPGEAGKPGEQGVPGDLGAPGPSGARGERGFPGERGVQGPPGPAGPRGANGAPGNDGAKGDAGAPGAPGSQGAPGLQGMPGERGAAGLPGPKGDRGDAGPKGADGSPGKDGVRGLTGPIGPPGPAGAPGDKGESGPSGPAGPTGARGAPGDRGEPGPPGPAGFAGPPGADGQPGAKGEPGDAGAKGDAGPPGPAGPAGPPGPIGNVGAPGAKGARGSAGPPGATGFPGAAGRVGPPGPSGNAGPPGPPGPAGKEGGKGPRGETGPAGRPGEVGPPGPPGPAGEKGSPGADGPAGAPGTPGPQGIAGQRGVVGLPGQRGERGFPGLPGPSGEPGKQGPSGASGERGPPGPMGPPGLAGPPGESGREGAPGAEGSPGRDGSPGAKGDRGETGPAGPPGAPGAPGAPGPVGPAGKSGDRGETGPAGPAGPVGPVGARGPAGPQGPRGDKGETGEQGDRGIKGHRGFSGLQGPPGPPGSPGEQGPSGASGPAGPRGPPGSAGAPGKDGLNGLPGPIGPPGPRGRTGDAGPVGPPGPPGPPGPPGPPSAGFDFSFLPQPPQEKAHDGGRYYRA
T1 sequence (P08123 80-1119, chain 2 of 2): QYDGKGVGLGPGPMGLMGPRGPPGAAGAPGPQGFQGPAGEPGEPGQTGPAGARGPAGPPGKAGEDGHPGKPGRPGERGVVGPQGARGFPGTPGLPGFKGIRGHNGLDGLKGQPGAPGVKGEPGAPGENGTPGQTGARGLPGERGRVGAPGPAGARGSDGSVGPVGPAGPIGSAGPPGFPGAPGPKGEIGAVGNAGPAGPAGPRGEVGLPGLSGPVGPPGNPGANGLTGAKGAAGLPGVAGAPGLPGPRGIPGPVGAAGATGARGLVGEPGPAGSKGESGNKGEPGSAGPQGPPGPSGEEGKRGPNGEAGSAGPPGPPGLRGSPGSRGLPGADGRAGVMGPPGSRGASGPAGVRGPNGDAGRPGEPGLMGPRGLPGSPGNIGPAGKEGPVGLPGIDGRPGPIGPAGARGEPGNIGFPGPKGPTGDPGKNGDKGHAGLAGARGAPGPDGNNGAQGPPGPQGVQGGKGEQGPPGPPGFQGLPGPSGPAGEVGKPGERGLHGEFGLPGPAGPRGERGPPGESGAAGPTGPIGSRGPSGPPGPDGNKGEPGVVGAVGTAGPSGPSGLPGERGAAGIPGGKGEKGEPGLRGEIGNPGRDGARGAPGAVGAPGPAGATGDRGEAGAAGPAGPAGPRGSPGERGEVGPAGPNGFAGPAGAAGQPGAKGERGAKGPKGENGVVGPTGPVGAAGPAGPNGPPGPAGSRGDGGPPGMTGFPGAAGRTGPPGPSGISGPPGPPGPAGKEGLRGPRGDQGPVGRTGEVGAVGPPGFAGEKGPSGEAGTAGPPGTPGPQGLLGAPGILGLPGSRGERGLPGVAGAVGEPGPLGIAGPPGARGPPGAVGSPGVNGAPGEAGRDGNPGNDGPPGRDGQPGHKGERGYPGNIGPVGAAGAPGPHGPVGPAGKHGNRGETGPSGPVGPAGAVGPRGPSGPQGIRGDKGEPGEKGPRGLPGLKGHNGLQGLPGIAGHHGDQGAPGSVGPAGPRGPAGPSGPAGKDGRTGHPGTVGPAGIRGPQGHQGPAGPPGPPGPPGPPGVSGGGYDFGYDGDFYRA

mCD200R, immobilised = molecular target: T2, mCD200R, immobilised (mouse, UniProt Q9ES57 26-238); test: SPR
T2 sequence (looked up): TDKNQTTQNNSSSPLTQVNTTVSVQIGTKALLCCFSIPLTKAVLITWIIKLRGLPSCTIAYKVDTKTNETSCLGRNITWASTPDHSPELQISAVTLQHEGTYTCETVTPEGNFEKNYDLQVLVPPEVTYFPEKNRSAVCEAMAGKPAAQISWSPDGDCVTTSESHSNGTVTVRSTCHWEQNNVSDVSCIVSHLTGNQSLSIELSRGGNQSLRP

[5] = molecular target: T3, mCD200RLa/rCD4d3+4, immobilised (mouse, UniProt Q6XJV4 26-241, biotin); test: SPR
T3 sequence (looked up): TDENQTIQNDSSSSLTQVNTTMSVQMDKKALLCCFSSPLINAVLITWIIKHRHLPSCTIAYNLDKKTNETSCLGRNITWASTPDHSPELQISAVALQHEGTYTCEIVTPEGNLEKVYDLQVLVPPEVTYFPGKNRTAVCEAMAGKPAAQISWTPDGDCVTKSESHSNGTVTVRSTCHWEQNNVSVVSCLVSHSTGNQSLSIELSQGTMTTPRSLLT

[6] = molecular target: (GPO)10 triple-helical peptide, GCO(GPO)10GCOG-NH2; test: SPR
[7] = molecular target: T1, Acid-soluble human collagen type I …; test: SPR; remark: listed apart in the source
SPR = molecular target: the molecule itself; test: SPR

CD47 ECD (Homo sapiens), sequence (Q08722 19-323): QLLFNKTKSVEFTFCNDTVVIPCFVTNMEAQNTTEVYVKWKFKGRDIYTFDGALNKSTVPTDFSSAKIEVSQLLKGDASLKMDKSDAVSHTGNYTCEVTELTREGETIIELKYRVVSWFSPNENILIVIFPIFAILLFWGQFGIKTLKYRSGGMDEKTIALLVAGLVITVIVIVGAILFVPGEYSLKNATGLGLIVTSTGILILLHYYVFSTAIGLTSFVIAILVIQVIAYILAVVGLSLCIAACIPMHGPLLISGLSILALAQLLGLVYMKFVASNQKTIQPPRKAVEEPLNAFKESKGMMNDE

Molecule: SIRPα ECD (from UniProt P78324)
Kd (CD47 ECD (Homo sapiens)): 2 µM

Molecule: CD200 ECD (from UniProt O54901)
Kd [1]: 4 µM
Kd [2]: > 500 µM

Molecule: CD200 ECD (from UniProt P41217)
Kd [3]: 2 µM

Molecule: CD2 ECD (from UniProt P06729)
Kd (CD58 ECD (Homo sapiens)): 10 µM

response [4]: 2700 RU
B1: hLAIR-1/rCD4d3+4, biotinylated (on beads or on the chip) (domain or fragment, human, UniProt Q6GTX8 22-165, looked up)
chain: QEEDLPRPSISAEPGTVIPLGSHVTFVCRGPVGVQTFRLERDSRSTYNDTEDVSQASPSESEARFRIDSVREGNAGLYRCIYYKPPKWSEQSDYLELLVKESSGGPDSPDTEPGSSAGPTQRPSDNSHNEHAPASQGLKAEHLY
modifications: biotin (biotin ligase BirA) on the sequence near the C terminus

response (mCD200R, immobilised): > 3000 RU
response [5]: > 3000 RU
B2: mCD200/rCD4d3+4 coupled beads (domain or fragment, mouse, UniProt O54901 31-232, looked up)
chain: QVEVVTQDERKALHTTASLRCSLKTSQEPLIVTWQKKKAVSPENMVTYSKTHGVVIQPAYKDRINVTELGLWNSSITFWNTTLEDEGCYMCLFNTFGSQKVSGTACLTLYVQPIVHLHYNYFEDHLNITCSATARPAPAISWKGTGTGIENSTESHFHSNGTTSVTSILRVKDPKTQVGKEVICQVLYLGNVIDYKQSLDKG
modifications: biotin on the tag that can be biotinylated

Kd [6]: 33 µM
Kd [7]: 39 µM
B3: mLilrb4/rCD4d3+4, soluble monomeric (domain or fragment, mouse, UniProt Q64281 24-238, looked up)
chain: GHLPKPIIWAEPGSVIAAYTSVITWCQGSWEAQYYHLYKEKSVNPWDTQVPLETRNKAKFNIPSMTTSYAGIYKCYYESAAGFSEHSDAMELVMTGAYENPSLSVYPSSNVTSGVSISFSCSSSIVFGRFILIQEGKHGLSWTLDSQHQANQPSYATFVLDAVTPNHNGTFRCYGYFRNEPQVWSKPSNSLDLMISETKDQSSTPTEDGLETYQK

B4: mLilrb4/rCD4d3+4, biotinylated (on beads or on the chip) (domain or fragment, mouse, UniProt Q64281 24-238, looked up)
chain: B3 chain
modifications: biotin (biotin ligase BirA) on the sequence near the C terminus
response (SPR): 1750 RU

Kd [6]: 10 µM
Kd [7]: 18 µM
B5: mLAIR-1/rCD4d3+4, soluble monomeric (domain or fragment, mouse, UniProt Q8BG84 22-144, looked up)
chain: QEGSLPDITIFPNSSLMISQGTFVTVVCSYSDKHDLYNMVRLEKDGSTFMEKSTEPYKTEDEFEIGPVNETITGHYSCIYSKGITWSERSKTLELKVIKENVIQTPAPGPTSDTSWLKTYSIY
